pKd: −log10 of the molar value.
Target: 4×SUMO2 linear fusion (C47A) with a single C-terminal cysteine labelled with Alexa488
Experiment: fluorescence polarisation; unlabelled RNF4 titrated against 1 µM 4×SUMO-Alexa488; 50 mM Tris, 150 mM NaCl, 0.5 mM TCEP, pH 7.5; room temperature, 10 min before measuring FP

pKd: 5.59
Substance: RNF4 ∆Basic, full-length (basic charge removed from the arginine-rich motif) (from UniProt O88846 1-194) (enzyme)

Source: publication PMC7393505
